# Laboratory results taken from patent publication US20220143213.
# B1: recombinant IdeZ (NEB P0770S or Genscript) (protein)
# chain: MKTIAYPNKPHSLSAGLLTAIAIFSLASSNITYADDYQRNATEAYAKEVPHQITSVWSKGVTPLTPEQFRYNNEDVIHAPYLAHQGWYDITKAFDGKDNLLCGAATAGNMLHWWFDQNKTEIEAYLSKHPEKQKIIFNNQELFDLKAAIDTKDSQTNSQLFNYFRDKAFPNLSARQLGVMPDLVLDMFINGYYLNVFKTQSTDVNRPYQDKDKRGGIFDAVFTRGDQTTLLTARHDLKNKGLNDISTIIKQELTEGRALALSHTYANVSISHVINLWGADFNAEGNLEAIYVTDSDANASIGMKKYFVGINAHGHVAISAKKIEGENIGAQVLGLFTLSSGKDIWQKLS
# B2: recombinant GST-IdeZ (N-terminally GST tagged IdeZ fusion) (protein)
# chain: MKTIAYPNKPHSLSAGLLTAIAIFSLASSNITYADDYQRNATEAYAKEVPHQITSVWSKGVTPLTPEQFRYNNEDVIHAPYLAHQGWYDITKAFDGKDNLLCGAATAGNMLHWWFDQNKTEIEAYLSKHPEKQKIIFNNQELFDLKAAIDTKDSQTNSQLFNYFRDKAFPNLSARQLGVMPDLVLDMFINGYYLNVFKTQSTDVNRPYQDKDKRGGIFDAVFTRGDQTTLLTARHDLKNKGLNDISTIIKQELTEGRALALSHTYANVSISHVINLWGADFNAEGNLEAIYVTDSDANASIGMKKYFVGINAHGHVAISAKKIEGENIGAQVLGLFTLSSGKDIWQKLS
# Key:
# [1] = molecular target: IgG from dog serum
# [2] = molecular target: IgG present within human serum
# [3] = molecular target: IgG present within mouse serum
# [4] = molecular target: IgG present within primate serum
# [5] = molecular target: human intravenous immunoglobulin (IVIG)
Protein,"IgG cleavage, SDS-PAGE [1]","IgG cleavage, reducing SDS-PAGE with Coomassie stain [2]","IgG cleavage, reducing SDS-PAGE with Coomassie stain (Donors 1-5) [2]","IgG cleavage, reducing SDS-PAGE with Coomassie stain [3]","IgG cleavage, reducing SDS-PAGE with Coomassie stain [4]","IVIG cleavage in vitro, reducing SDS-PAGE with Coomassie stain [5]","IgG cleavage, SDS-PAGE with Coomassie stain (heavy chain cleavage product ~31 kDa) [2]","IgG cleavage, SDS-PAGE with Coomassie stain (heavy chain cleavage product ~31 kDa) [4]"
B1,IdeZ can cleave IgG from dog serum,IgG present within serum was cleaved by IdeZ,IdeZ also cleaved IgG in serum samples from additional human patients (Donors 1-5),IgG present within serum was cleaved by IdeZ,IgG present within serum was cleaved by IdeZ,IdeZ cleaved human IVIG in vitro,–,–
B2,–,–,–,–,–,IdeZ cleaved human IVIG in vitro,GST-IdeZ cleaved IgG present within human and primate serum,GST-IdeZ cleaved IgG present within human and primate serum
